Patent publication US20230414780A1 (VECT HORUS, published 2023)
Substitutions are numbered along the chain they refer to.

Legend:
[1] = biological target: T1, murine TfR expressed by murine neuroblastoma Neuro-2a cells (mouse, UniProt Q62351 1-763); assay: cell-based or functional assay
[2] = biological target: T1, murine TfR expressed by murine …; assay: competition with C5-Alexa680 (100 nM) on living Neuro-2a cells, 3 hrs at 37 C, flow cytometry; Ki/app, mean ± SD
Procedure: The binding of VHH-Oligo and VHH-hFc-Oligo conjugates to mTfR was evaluated using a competition assay on living cells expressing the receptor of interest, namely murine neuroblastoma Neuro-2a cells (N2a). N2a cells were grown in Dulbecco's Modified Eagle Medium (DMEM) GlutaMAX supplemented with 10% v/v FBS in 5% CO₂ at 37° C. Cells were seeded two days before experiments in 96-well plates at a density of 50.000 cells/well. […] Resuspended cells were transferred in a 96-deepwell plate (V-bottom) containing 1% fetal bovine serum (FBS)/0.02% sodium azide in phosphate-buffered saline (PBS) and then centrifuged for 5 min at 2000 rpm at 4° C. After removing the supernatant, 5 mM EDTA in D-PBS and 4% paraformaldehyde (PFA) (v/v 1:1) were added into wells to fix cells for 15 min at room temperature. PFA was removed by centrifugation (5 min, 3000 rpm, 4° C.) and cells were resuspended with 5 mM EDTA in D-PBS. Then the cellular A680-associated fluorescence signal was quantified using an Attune™ NxT flow cytometer (Thermo Fisher Scientific) equipped with Attune™ NxT v3.1.2. Experimental data (experimental triplicates) were fitted with GraphPad Prism® software using a nonlinear fit to determine the apparent Ki inhibition constants.

[3] = biological target: T2, human transferrin receptor (hTfR) fused to EGFP, on CHO cells (human, UniProt P02786 1-760); assay: apparent Kd, flow cytometry, CHO cells
T2 construct: whole, on cells; also called human TfR; CHO-hTfR-EGFP; not shown: EGFP from pEGFP-C1 vector, fused to the N-terminal (intracellular) end of hTfR
T2 sequence (P02786 whole entry, the tested form may be a part): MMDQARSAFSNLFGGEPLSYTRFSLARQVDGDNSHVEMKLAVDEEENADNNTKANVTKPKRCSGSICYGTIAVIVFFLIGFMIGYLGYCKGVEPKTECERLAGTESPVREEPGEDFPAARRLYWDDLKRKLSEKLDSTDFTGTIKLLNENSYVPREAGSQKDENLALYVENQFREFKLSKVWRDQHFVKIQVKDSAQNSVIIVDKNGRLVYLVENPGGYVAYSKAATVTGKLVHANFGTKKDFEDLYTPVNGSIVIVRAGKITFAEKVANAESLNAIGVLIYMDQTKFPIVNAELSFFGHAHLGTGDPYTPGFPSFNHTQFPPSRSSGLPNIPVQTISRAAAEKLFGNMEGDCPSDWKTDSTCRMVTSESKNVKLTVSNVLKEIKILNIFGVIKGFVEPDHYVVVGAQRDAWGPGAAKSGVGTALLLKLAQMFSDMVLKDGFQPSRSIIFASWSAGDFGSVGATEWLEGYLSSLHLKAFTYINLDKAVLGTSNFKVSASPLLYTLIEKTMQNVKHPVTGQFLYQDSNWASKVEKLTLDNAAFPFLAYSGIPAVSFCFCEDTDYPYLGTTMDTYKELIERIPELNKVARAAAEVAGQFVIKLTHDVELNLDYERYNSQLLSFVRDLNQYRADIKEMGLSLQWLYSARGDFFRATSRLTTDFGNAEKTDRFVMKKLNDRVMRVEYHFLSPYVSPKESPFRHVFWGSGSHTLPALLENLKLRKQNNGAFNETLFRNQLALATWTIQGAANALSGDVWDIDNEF
Procedure: All experiments were performed in 96 well plates using 2×10⁵ cells/well, at 4° C. with shaking. CHO cell lines stably expressing the hTfR or the mTfR fused to EGFP or CHO WT cells were saturated with PBS/BSA 2% solution during 30 min to avoid non-specific binding, followed by incubation with purified VHHs at concentrations ranging from 50 μM to 5 μM for 1 hr. After one wash in PBS/BSA 2%, cells were incubated for 1 hr with an anti-6His tag antibody (mouse), washed twice with PBS/BSA 2%, and incubated for 45 min with an Alexa647-conjugated anti-mouse secondary antibody. After two last washes in PBS/BSA 2%, cells were fixed by incubation for 15 min with PBS/PFA 2%, washed once with PBS and finally resuspended in PBS and stored at 4° C. Fluorescence levels were assessed using an Attune NxT Flow Cytometer (Thermo Fisher Scientific). […] No labeling of the CHO WT control cells was detected with all the tested VHHs (not shown). The VHH K_{d app} were calculated using GraphPad Prism software (FIG. 11-B; 12-B).

[4] = biological target: T3, mouse transferrin receptor (mTfR) fused to EGFP, on CHO cells (mouse, UniProt Q62351 1-763); assay: flow cytometry on CHO-mTfR-EGFP cells, 1 hr at 4 C, anti-6His + Alexa647 anti-mouse
T3 construct: whole, on cells; also called mouse TfR; CHO-mTfR-EGFP; not shown: EGFP
T3 sequence (Q62351 whole entry, the tested form may be a part): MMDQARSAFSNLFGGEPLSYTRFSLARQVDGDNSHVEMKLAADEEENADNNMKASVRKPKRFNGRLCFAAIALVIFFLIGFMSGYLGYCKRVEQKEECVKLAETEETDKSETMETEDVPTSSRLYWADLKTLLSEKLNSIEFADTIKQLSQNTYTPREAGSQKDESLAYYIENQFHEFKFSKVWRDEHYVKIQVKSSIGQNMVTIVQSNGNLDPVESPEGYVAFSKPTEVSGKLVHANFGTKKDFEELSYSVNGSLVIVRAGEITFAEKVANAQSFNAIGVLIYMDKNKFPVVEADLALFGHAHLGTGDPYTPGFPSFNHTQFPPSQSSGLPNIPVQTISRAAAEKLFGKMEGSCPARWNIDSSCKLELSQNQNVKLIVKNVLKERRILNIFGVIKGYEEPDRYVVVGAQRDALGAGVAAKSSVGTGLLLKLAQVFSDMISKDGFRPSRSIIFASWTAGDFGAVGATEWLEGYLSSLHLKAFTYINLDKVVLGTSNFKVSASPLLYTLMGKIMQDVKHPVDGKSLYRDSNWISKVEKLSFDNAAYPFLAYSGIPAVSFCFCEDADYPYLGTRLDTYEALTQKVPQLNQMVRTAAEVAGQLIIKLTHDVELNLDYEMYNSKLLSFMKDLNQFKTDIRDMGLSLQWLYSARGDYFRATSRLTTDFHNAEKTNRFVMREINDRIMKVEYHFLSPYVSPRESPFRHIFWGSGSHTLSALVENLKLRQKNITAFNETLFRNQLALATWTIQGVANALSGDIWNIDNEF
Procedure: (§1) (A) CHO-hTfR-EGFP and CHO-mTfR-EGFP cells were incubated 1 hr at 4° C. with various concentrations of VHHs, detected with a mouse anti-6His (1/1000) and an Alexa647-conjugated anti-mouse secondary antibody (1/400). Measurements were performed using flow cytometry. The ratio of fluorescence intensity for each point was normalized with the corresponding EGFP signal (receptor expression) and gave rise to the arbitrary unit. Data are presented as mean±SEM of 3 independent experiments. (B) Characteristics of VHHs: Molecular Weight (Da); Theoretical pI; Apparent Kd on human TfR (nM); Apparent Kd on mouse TfR (nM). Data are presented as mean±SEM of 3 independent experiments. NB: no binding, LB: low binding.
(§2) All experiments were performed in 96 well plates using 2×10⁵ cells/well, at 4° C. with shaking. CHO cell lines stably expressing the hTfR or the mTfR fused to EGFP or CHO WT cells were saturated with PBS/BSA 2% solution during 30 min to avoid non-specific binding, followed by incubation with purified VHHs at concentrations ranging from 50 μM to 5 μM for 1 hr. After one wash in PBS/BSA 2%, cells were incubated for 1 hr with an anti-6His tag antibody (mouse), washed twice with PBS/BSA 2%, and incubated for 45 min with an Alexa647-conjugated anti-mouse secondary antibody. […] Fluorescence levels were assessed using an Attune NxT Flow Cytometer (Thermo Fisher Scientific).

[5] = biological target: T2, human transferrin receptor (hTfR) fused …; assay: flow cytometry on CHO-hTfR-EGFP cells, 1 hr at 4 C, anti-6His + Alexa647 anti-mouse; apparent Kd, mean ± SEM of 3 experiments
Procedure: as §1, §2

[6] = biological target: T3, mouse transferrin receptor (mTfR) fused …; assay: flow cytometry on CHO-mTfR-EGFP cells, 1 hr at 4 C, anti-6His + Alexa647 anti-mouse; apparent Kd, mean ± SEM of 3 experiments
Procedure: as §1, §2

[7] = biological target: T3, mouse transferrin receptor (mTfR) fused …; assay: flow cytometry, CHO cells
[8] = biological target: T3, mouse transferrin receptor (mTfR) fused …; assay: flow cytometry on CHO-mTfR-EGFP cells, 1 hr at 4 C, Alexa647 anti-mouse; apparent Kd, mean ± SEM of 3 experiments
Procedure: as §1, with “FIGS. 13A-13B: Apparent Kd determination of 13C3-HC-VHH fusions on hTfR- and mTfR-expressing CHO cell lines. (A)” for “(A)”, “13C3 fusions and” for “VHHs,”, “with” for “with a mouse anti-6His (1/1000) and”, “anti-mouse” for “anti-mouse secondary”, “13C3 fusions:” for “VHHs:”, “(Da);” for “(Da); Theoretical pI;”
All experiments were performed in 96 well plates using 2×10⁵ cells/well, at 4° C. with shaking. CHO cell lines stably expressing the hTfR or the mTfR fused to EGFP or CHO WT cells were saturated with PBS/BSA 2% solution during 30 min to avoid non-specific binding, followed by incubation with purified VHHs at concentrations ranging from 50 μM to 5 μM for 1 hr. After one wash in PBS/BSA 2%, cells were incubated for 1 hr with an anti-6His tag antibody (mouse), washed twice with PBS/BSA 2%, and incubated for 45 min with an Alexa647-conjugated anti-mouse secondary antibody. After two last washes in PBS/BSA 2%, cells were fixed by incubation for 15 min with PBS/PFA 2%, washed once with PBS and finally resuspended in PBS and stored at 4° C. Fluorescence levels were assessed using an Attune NxT Flow Cytometer (Thermo Fisher Scientific).

[9] = biological target: T3, mouse transferrin receptor (mTfR) fused …; assay: cell-based flow cytometry assay on mTfR-expressing cells (as in Example XI)
[10] = biological target: T3, mouse transferrin receptor (mTfR) fused …; assay: cell-based flow cytometry assay on mTfR-expressing cells (as in Example XI); Kd/app
[11] = biological target: T3, mouse transferrin receptor (mTfR) fused …; assay: apparent Kd, cell-based assay

T1 sequence (Q62351 whole entry): as the sequence (Q62351 whole entry, the tested form may be a part) above

B1: C5-siSOD1m-5'VP (VHH, not shown: small tags and cut ends)
VHH: EVQLVESGGGVVQPGGSLKLSCVASGTDFSINFIRWYRQAPGKQREFVAGFTATGNTNYADSMKGRFTISRDNTKNAVYLQIDSLKPEDTAVYYCYMLDKWGQGTQVTVSS
modifications: siSOD1m-5'VP siRNA duplex linked by a stable linker (azide/alkyne click) to the VHH
notes: also called VHH-siSOD1m-5'VP wherein VHH is C5
In the case of B1, the “IC50 of mSOD1 mRNA downregulation, free uptake on Neuro-2a cells” value [1] is reported as 7.4 nM and the Ki [2] is reported as 164 nM.

B2: VHH A7 (C5^V7) (VHH)
VHH: B1 VHH with L98A
With B2 the Kd [3] was 255 nM and the binding result [4] was “binds”.

B3: VHH A6 (C5^V6) (VHH)
VHH: B1 VHH with M97A
In the case of B3, the Kd [3] is reported as 3 to 4 nM, the Kd [5] is reported as 3.4 nM and the Kd [6] is reported as 182 nM.

B4: 13C3-HC-VHH A1 (antibody)
heavy: QVQLQQSGPELVRPGVSVKISCKGSGYTFTDYAMHWVKQSHAKSLEWIGVISTKYGKTNYNQKFKGKATMTVDKSSSTAYMELARLTSEDSAIYYCARGDDGYSWGQGTSVTVSSAKTTPPSVYPLAPGSAAQTNSMVTLGCLVKGYFPEPVTVTWNSGSLSSGVHTFPAVLQSDLYTLSSSVTVPSSTWPSETVTCNVAHPASSTKVDKKIVPRDCGCKPCICTVPEVSSVFIFPPKPKDVLTITLTPKVTCVVVDISKDDPEVQFSWFVDDVEVHTAQTQPREEQFNSTFRSVSELPIMHQDWLNGKEFKCRVNSAAFPAPIEKTISKTKGRPKAPQVYTIPPPKEQMAKDKVSLTCMITDFFPEDITVEWQWNGQPAENYKNTQPIMDTDGSYFVYSKLNVQKSNWEAGNTFTCSVLHEGLHNHHTEKSLSHSPGGGGGMAEVQLVESGGGVVQPGGSLKLSCVASGADFSINFIRWYRQAPGKQREFVAGFTATGNTNYADSMKGRFTISRDNTKNAVYLQIDSLKPEDTAVYYCYMLDKWGQGTQVTVSSAAA
light: DVVMTQTPLSLPVSLGDQASISCRSGQSLVHSNGNTYLHWYLQKPGQSPKLLIYTVSNRFSGVPDRFSGSGSGSDFTLKISRVEAEDLGVYFCSQNTFVPWTFGGGTKLEIKRADAAPTVSIFPPSSEQLTSGGASVVCFLNNFYPKDINVKWKIDGSERQNGVLNSWTDQDSKDSTYSMSSTLTLTKDEYERHNSYTCEATHKTSTSPIVKSFNRNEC
For B4, the “Bmax, fold lower than 13C3-HC-VHH A” value [7] was 2 fold and the Kd [8] was 9.4 nM.

B5: 13C3-HC-C5h16 (antibody)
heavy: QVQLQQSGPELVRPGVSVKISCKGSGYTFTDYAMHWVKQSHAKSLEWIGVISTKYGKTNYNQKFKGKATMTVDKSSSTAYMELARLTSEDSAIYYCARGDDGYSWGQGTSVTVSSAKTTPPSVYPLAPGSAAQTNSMVTLGCLVKGYFPEPVTVTWNSGSLSSGVHTFPAVLQSDLYTLSSSVTVPSSTWPSETVTCNVAHPASSTKVDKKIVPRDCGCKPCICTVPEVSSVFIFPPKPKDVLTITLTPKVTCVVVDISKDDPEVQFSWFVDDVEVHTAQTQPREEQFNSTFRSVSELPIMHQDWLNGKEFKCRVNSAAFPAPIEKTISKTKGRPKAPQVYTIPPPKEQMAKDKVSLTCMITDFFPEDITVEWQWNGQPAENYKNTQPIMDTDGSYFVYSKLNVQKSNWEAGNTFTCSVLHEGLHNHHTEKSLSHSPGGGGGMAEVQLVESGGGLVQPGGSLRLSCAASGTDFSINFIRWYRQAPGKGLEFVAGFTATGNTNYADSVKGRFTISRDNSKNTLYLQMNSLRAEDTAVYYCYMLDKWGQGTLVTVSSAAA
light: B4 light
B5 was tested, and the “binding potential, fold lower than 13C3-HC-C5h20” value [7] was roughly 3 fold, the Bmax [9] was 381 RFI and the Kd [10] was 19.6 nM.

B6: B8 h1-NT(8-13) (VHH)
VHH: EVQLVESGGGVVQPGGSLRLSCAASGEIFSINFMRWYRQAPGKGLEWVAGFTRDGSTNYPDSVKGRFTISRDNAKNTVYLQMNSLRPEDTAVYYCYMLDTWGQGTQVTVSS
Binder B6 has a Kd [11] of 2.8 nM.

B7: B8V1-NT(8-13) (VHH)
VHH: B6 VHH with S25D, G44Q, L45R, V63A, M82I, N83D, R86K
B7 was tested, and the Kd [11] was 8.3 nM.
